# IntAct's records for PubMed 16286470
# B1: Dual specificity protein phosphatase 1 (Homo sapiens), P28562 (parent)
# chain: MVMEVGTLDAGGLRALLGERAAQCLLLDCRSFFAFNAGHIAGSVNVRFSTIVRRRAKGAMGLEHIVPNAELRGRLLAGAYHAVVLLDERSAALDGAKRDGTLALAAGALCREARAAQVFFLKGGYEAFSASCPELCSKQSTPMGLSLPLSTSVPDSAESGCSSCSTPLYDQGGPVEILPFLYLGSAYHASRKDMLDALGITALINVSANCPNHFEGHYQYKSIPVEDNHKADISSWFNEAIDFIDSIKNAGGRVFVHCQAGISRSATICLAYLMRTNRVKLDEAFEFVKQRRSIISPNFSFMGQLLQFESQVLAPHCSAEAGSPAMAVLDRGTSTTTVFNFPVSIPVHSTNSALSYLQSPITTSPSC
# Variants of: B1
# Settings: with ubb_human UBB
row,effect of a mutation on the interaction,Variant
1,decreasing interaction,S296A
2,decreasing interaction,S323A
3,decreasing interaction,F339A;F341A

# Variants of: B1
# Settings: with skp2_human SKP2, Q13309
# Sequence of skp2_human SKP2, Q13309 (Q13309 whole entry): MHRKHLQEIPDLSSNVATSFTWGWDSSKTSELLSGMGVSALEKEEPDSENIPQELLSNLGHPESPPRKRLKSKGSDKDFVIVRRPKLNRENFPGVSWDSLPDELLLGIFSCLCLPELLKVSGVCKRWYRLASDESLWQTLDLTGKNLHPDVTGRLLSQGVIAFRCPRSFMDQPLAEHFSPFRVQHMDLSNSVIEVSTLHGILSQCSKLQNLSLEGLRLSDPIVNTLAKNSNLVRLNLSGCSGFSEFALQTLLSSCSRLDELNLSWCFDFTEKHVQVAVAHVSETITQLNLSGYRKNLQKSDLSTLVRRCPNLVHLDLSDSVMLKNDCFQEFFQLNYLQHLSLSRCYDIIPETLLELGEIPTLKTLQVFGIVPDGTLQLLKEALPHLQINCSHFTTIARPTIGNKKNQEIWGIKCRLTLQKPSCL
row,effect of a mutation on the interaction,Variant
1,decreasing interaction,S296A
